Assay results reported in PMC5951680.

Target: zebrafish TRPC4 (TRPC4DR) (Danio rerio (zebrafish))
Assay: cryo-EM structure; TRPC4DR in amphipols A8-35, unliganded (apo), closed state; buffer C (PBS pH 7.4, 1 mM TCEP); 0.25 mg/ml on the grid; C4 symmetry imposed; 3.6 Å

stoichiometry N: 4
Substance: zebrafish TRPC4 (TRPC4DR) (natural protein)
